Experimental findings from patent US20220195015A1 (published 2022) are described below.

First the molecules themselves.
B1: C050 (antibody, V domains shown)
VH: EVQLVESGGGLFQPGGSLRLSCAASGFSVRNNYVSWVRQAPGKGLEWVSVIYSGGTTYYADSVKGRFTISRDISENTLYLQMNSLRAEDTAVYYCAREGDVEGLHDFWSGYSRDRYYFDYWGQGTLVTVSS
VL: QSALTQPASVSGSPGQSIIISCTGTSGDIGGYNYVSWYQQHPGKAPKLMIYDVSFRPSGVSNRFSGSKSDNTASLTISGLQAEDEADYYCSSFTGNNTRVFGTGTKVTVL
B2: C053 (antibody, V domains shown)
VH: B1 VH with F12I, S28I, R30S, V34M, E46D, I73N, E75K, L104Y, F107S
VL: QSALTQPASVSGSPGQSITISCTGSSSDVGGYNFVSWYQQHPGRAPKLMIYDVSNRPSGVSNRFSGSKSGNTASLTISGLQVEDEADYYCSSYTNNNTRVFGTGTKVTVL
B3: C164 (antibody, V domains shown)
VH: EVQLVESGGGLVQPGGSLRLSCAASGFSVSTKYMTWVRQAPGKGLEWVSVLYSGGSDYYADSVKGRFTISRDNSKNALYLQMNSLRVEDTGVYYCARDSSEVRDHPGHPGRSVGAFDIWGQGTMVTVSS
VL: QSALTQPASVSGSPGQSITISCTGTSNDVGSYTLVSWYQQYPGKAPKLLIFEVTKRSSGISNRFSGSKSGNTASLTISGLQGEDEADYYCCSYAGASTFVFGGGTKLTVL
B4: C055 (antibody, V domains shown)
VH: B3 VH with G55R, S56T, N73S, A77I, N83S, V92F, G120S
VL: B3 VL with T19A, V53D, T54S, K55Q, Q81R, A96S, S97H, L107V
B5: C143 (antibody, V domains shown)
VH: B3 VH
VL: B3 VL with V53G
B6: C051 (antibody, V domains shown)
VH: EVQLVESGGGLIQAGGSLRLSCAASGFGVRNNYMSWVRQAPGKGLEWVSVIYSGGTTYYADSVKGRFTISRDNSKNTVFLQMNSLRAEDTAVYYCAREGDVEGFSDLWSGYSRDRYYFDYWGQGTLVTVSS
VL: QSALTQPASVSGSPGQSITFSCTGTSSDVGGYNYVSWYQQYPGKAPKLLIYDVTNRPSGVSDRFSGSKSGNTASLTISGLQAEDEADYYCSSFTSSNTRVFGTGTKVTVL
B7: C058 (antibody, V domains shown)
VH: QVQLVQSGAEVKKPGASVKVSCKASGYIFTDYSMHWVRQAPGQGLEWIGWVNPNSGGTNYAQKFQGWVTMARDTSITTVYMELSRLKSDDTAVYFCARGPLFHRLVYDFWSGYHDGFDMWGQGTMVTVSS
VL: QSALTQPASVSGSPGQSITISCTGTSSDVGGYKFVSWYQQHPGKAPKLMIYEVSNRPSGVSNRFSGSKSGNTASLTISGLQAEDEADYYCNSYTSSSTWVFGGGTKLTVL
B8: C544 (antibody, V domains shown)
VH: QVQLVQSGAEVKKPGASVKVSCKASGYTFSSHDINWVRQATGQGLEWVGWMNPNSGNTGSAQSFQGRVTLTRNASISTAYLELSSLRSEDTAVYFCARGFSLTWYFDLWGRGTLVTVSS
VL: SYELTQPPSVSAAPGKTARITCGGNNIGGKNVHWYQQKPGQAPVLVVFDDSDRPSGIPERFSGSNSGNTATLTISRVEAGDEADYYCQLWDSTSDHPDVVFGGGTQLTVL
B9: C542 (antibody, V domains shown)
VH: EVQLVESGGGLVQPGGSLRLSCAASGLTVTSNYMSWVRQAPGRGLEWVSLIYPGGTTYYADSVKGRFTVSRDNSKNTLYLQMDSLRAEDTGVYYCARETLGRGGDCWGQGTLVTVSS
VL: DIQMTQSPSSLSASVGDRVTITCQASQDISNFLNWYQQKPGKAPKLLIYDASNLETGVPSRFSGSRSGTDFTFTISSLQPDDIATYYCQQYDNLPRSFGQGTKLEIK

Where a chain is given by its changes, count along the chain named.

The first experiment addresses SARS-CoV-2 spike receptor binding domain (RBD), wild type (SARS-CoV-2, UniProt P0DTC2 319-539). In words: ELISA on coated RBD protein. Background: In an ELISA, binding on a coated surface is turned into a signal by an enzyme label.
B1 came in with an EC50 of 1.93 ng/mL. In turn, B2 registered an EC50 of 1.53 ng/mL. As for B3, the EC50 amounted to 1.41 ng/mL.

On to B4, for which a half-maximal effect (EC50) was put at 1.25 ng/mL. For the molecule B5, the EC50 was determined as 2.01 ng/mL. The molecule B6 yielded a concentration giving a half-maximal response (EC50) of 1.65 ng/mL. B7: the EC50 was 2.28 ng/mL.

The next experiment shares this target. In words: ELISA, RBD protein coated, mAb titrated.
On to B8, for which the EC50 stood at 2.34 ng/mL. With B9, a half-maximal response (EC50) required 1.07 ng/mL.

The term EC50 denotes the concentration at which the effect is half-maximal.
